B1: Macrocyclic peptide of Example 2-5 (SEQ ID No. 8) (peptide)
peptide: {CH2CO}-[NMeQ][NMeQ]D[NMeQ][Phe(4-COOH)]II[Phe(4-COOH)][NMe2Nal]G[Phe(4-(1-Me-pyrazol-4-yl))][NMeC]-NH2
modifications: thioether N-12
SMILES: CC[C@H](C)[C@@H]1NC(=O)[C@H](Cc2ccc(C(=O)O)cc2)NC(=O)[C@H](CCC(N)=O)N(C)C(=O)[C@H](CC(=O)O)NC(=O)[C@H](CCC(N)=O)N(C)C(=O)[C@H](CCC(N)=O)N(C)C(=O)CSC[C@@H](C(N)=O)N(C)C(=O)[C@H](Cc2ccc(-c3cnn(C)c3)cc2)NC(=O)CNC(=O)[C@H](Cc2ccc3ccccc3c2)N(C)C(=O)[C@H](Cc2ccc(C(=O)O)cc2)NC(=O)[C@H]([C@@H](C)CC)NC1=O
B2: Macrocyclic peptide of Example 2-6 (SEQ ID No. 9) (peptide)
peptide: {CH2CO}-[NMeA][NMeQ]D[NMeQ][Phe(4-COOH)]II[Phe(4-COOH)][NMe2Nal]G[Phe(4-(1-Me-pyrazol-4-yl))][NMeC]-NH2
modifications: thioether N-12
SMILES: CC[C@H](C)[C@@H]1NC(=O)[C@H](Cc2ccc(C(=O)O)cc2)NC(=O)[C@H](CCC(N)=O)N(C)C(=O)[C@H](CC(=O)O)NC(=O)[C@H](CCC(N)=O)N(C)C(=O)[C@H](C)N(C)C(=O)CSC[C@@H](C(N)=O)N(C)C(=O)[C@H](Cc2ccc(-c3cnn(C)c3)cc2)NC(=O)CNC(=O)[C@H](Cc2ccc3ccccc3c2)N(C)C(=O)[C@H](Cc2ccc(C(=O)O)cc2)NC(=O)[C@H]([C@@H](C)CC)NC1=O
B3: Macrocyclic peptide of Example 2-12 (SEQ ID No. 15) (peptide)
peptide: {CH2CO}-[NMeQ][NMeQ]D[MeA4paa][Phe(4-COOH)]II[Phe(4-COOH)][NMe2Nal]G[Phe(4-(1-Me-pyrazol-4-yl))][NMeC]-NH2
modifications: thioether N-12
SMILES: CC[C@H](C)[C@@H]1NC(=O)[C@H](Cc2ccc(C(=O)O)cc2)NC(=O)[C@H](CC2CCN(CC(=O)O)CC2)N(C)C(=O)[C@H](CC(=O)O)NC(=O)[C@H](CCC(N)=O)N(C)C(=O)[C@H](CCC(N)=O)N(C)C(=O)CSC[C@@H](C(N)=O)N(C)C(=O)[C@H](Cc2ccc(-c3cnn(C)c3)cc2)NC(=O)CNC(=O)[C@H](Cc2ccc3ccccc3c2)N(C)C(=O)[C@H](Cc2ccc(C(=O)O)cc2)NC(=O)[C@H]([C@@H](C)CC)NC1=O
B4: Macrocyclic peptide of Example 2-9 (SEQ ID No. 12) (peptide)
peptide: {CH2CO}-[NMeQ][HseMe]D[NMeQ][Phe(4-COOH)]II[Phe(4-COOH)][NMe2Nal]G[Phe(4-(1-Me-pyrazol-4-yl))][NMeC]-NH2
modifications: thioether N-12
SMILES: CC[C@H](C)[C@@H]1NC(=O)[C@H](Cc2ccc(C(=O)O)cc2)NC(=O)[C@H](CCC(N)=O)N(C)C(=O)[C@H](CC(=O)O)NC(=O)[C@H](CCOC)NC(=O)[C@H](CCC(N)=O)N(C)C(=O)CSC[C@@H](C(N)=O)N(C)C(=O)[C@H](Cc2ccc(-c3cnn(C)c3)cc2)NC(=O)CNC(=O)[C@H](Cc2ccc3ccccc3c2)N(C)C(=O)[C@H](Cc2ccc(C(=O)O)cc2)NC(=O)[C@H]([C@@H](C)CC)NC1=O
B5: Macrocyclic peptide of Example 2-7 (SEQ ID No. 10) (peptide)
peptide: {CH2CO}-[NMeQ][NMeL]D[NMeQ][Phe(4-COOH)]II[Phe(4-COOH)][NMe2Nal]G[Phe(4-(1-Me-pyrazol-4-yl))][NMeC]-NH2
modifications: thioether N-12
SMILES: CC[C@H](C)[C@@H]1NC(=O)[C@H](Cc2ccc(C(=O)O)cc2)NC(=O)[C@H](CCC(N)=O)N(C)C(=O)[C@H](CC(=O)O)NC(=O)[C@H](CC(C)C)N(C)C(=O)[C@H](CCC(N)=O)N(C)C(=O)CSC[C@@H](C(N)=O)N(C)C(=O)[C@H](Cc2ccc(-c3cnn(C)c3)cc2)NC(=O)CNC(=O)[C@H](Cc2ccc3ccccc3c2)N(C)C(=O)[C@H](Cc2ccc(C(=O)O)cc2)NC(=O)[C@H]([C@@H](C)CC)NC1=O
B6: Macrocyclic peptide of Example 2-11 (SEQ ID No. 14) (peptide)
peptide: {CH2CO}-[NMeQ][NMeQ]K(Ac)[NMeQ][Phe(4-COOH)]II[Phe(4-COOH)][NMe2Nal]G[Phe(4-(1-Me-pyrazol-4-yl))][NMeC]-NH2
modifications: thioether N-12
SMILES: CC[C@H](C)[C@@H]1NC(=O)[C@H](Cc2ccc(C(=O)O)cc2)NC(=O)[C@H](CCC(N)=O)N(C)C(=O)[C@H](CCCCNC(C)=O)NC(=O)[C@H](CCC(N)=O)N(C)C(=O)[C@H](CCC(N)=O)N(C)C(=O)CSC[C@@H](C(N)=O)N(C)C(=O)[C@H](Cc2ccc(-c3cnn(C)c3)cc2)NC(=O)CNC(=O)[C@H](Cc2ccc3ccccc3c2)N(C)C(=O)[C@H](Cc2ccc(C(=O)O)cc2)NC(=O)[C@H]([C@@H](C)CC)NC1=O
B7: Macrocyclic peptide of Example 2-10 (SEQ ID No. 13) (peptide)
peptide: {CH2CO}-[NMeQ][NMeQ][Hgn][NMeQ][Phe(4-COOH)]II[Phe(4-COOH)][NMe2Nal]G[Phe(4-(1-Me-pyrazol-4-yl))][NMeC]-NH2
modifications: thioether N-12
SMILES: CC[C@H](C)[C@@H]1NC(=O)[C@H](Cc2ccc(C(=O)O)cc2)NC(=O)[C@H](CCC(N)=O)N(C)C(=O)[C@H](CCCC(N)=O)NC(=O)[C@H](CCC(N)=O)N(C)C(=O)[C@H](CCC(N)=O)N(C)C(=O)CSC[C@@H](C(N)=O)N(C)C(=O)[C@H](Cc2ccc(-c3cnn(C)c3)cc2)NC(=O)CNC(=O)[C@H](Cc2ccc3ccccc3c2)N(C)C(=O)[C@H](Cc2ccc(C(=O)O)cc2)NC(=O)[C@H]([C@@H](C)CC)NC1=O
B8: Macrocyclic peptide of Example 2-8 (SEQ ID No. 11) (peptide)
peptide: {CH2CO}-[NMeQ][MeHseMe″]D[NMeQ][Phe(4-COOH)]II[Phe(4-COOH)][NMe2Nal]G[Phe(4-(1-Me-pyrazol-4-yl))][NMeC]-NH2
modifications: thioether N-12
SMILES: CC[C@H](C)[C@@H]1NC(=O)[C@H](Cc2ccc(C(=O)O)cc2)NC(=O)[C@H](CCC(N)=O)N(C)C(=O)[C@H](CC(=O)O)NC(=O)[C@H](CCOC)N(C)C(=O)[C@H](CCC(N)=O)N(C)C(=O)CSC[C@@H](C(N)=O)N(C)C(=O)[C@H](Cc2ccc(-c3cnn(C)c3)cc2)NC(=O)CNC(=O)[C@H](Cc2ccc3ccccc3c2)N(C)C(=O)[C@H](Cc2ccc(C(=O)O)cc2)NC(=O)[C@H]([C@@H](C)CC)NC1=O
B9: Lu-C-1 (peptide)
peptide: Ac-[NMeK](DOTA‑Lu)[NMeI]D[NMeQ][Phe(4-COOH)]IIY[NMeAla(isoquinolin-7-yl)]G[3Pal(6-Ph)][NMeC]-NH2
modifications: bridge N-12; not fully specified (bridges); printed as MeK(DOTA-Lu)-MeI-D-MeQ-F4COO-I-I-Y-MeNal27N-G-3Py6Ph-MeC-NH2
B10: Macrocyclic peptide of Example 2-1 (SEQ ID No. 2) (peptide)
peptide: {CH2CO}-[NMeK](Ac)[NMeI]D[NMeQ][Phe(4-COOH)]II[Phe(4-COOH)][NMe2Nal]G[3Pal(6-Ph)][NMeC]-NH2
modifications: thioether N-12
SMILES: CC[C@H](C)[C@@H]1NC(=O)[C@H](Cc2ccc(C(=O)O)cc2)NC(=O)[C@H](CCC(N)=O)N(C)C(=O)[C@H](CC(=O)O)NC(=O)[C@H]([C@@H](C)CC)N(C)C(=O)[C@H](CCCCNC(C)=O)N(C)C(=O)CSC[C@@H](C(N)=O)N(C)C(=O)[C@H](Cc2ccc(-c3ccccc3)nc2)NC(=O)CNC(=O)[C@H](Cc2ccc3ccccc3c2)N(C)C(=O)[C@H](Cc2ccc(C(=O)O)cc2)NC(=O)[C@H]([C@@H](C)CC)NC1=O
B11: Macrocyclic peptide of Example 2-2 (SEQ ID No. 3) (peptide)
peptide: {CH2CO}-[NMeK](Ac)[NMeI]D[NMeQ][Phe(4-COOH)]II[Phe(4-COOH)][NMe2Nal]G[Phe(4-(1-Me-pyrazol-4-yl))][NMeC]-NH2
modifications: thioether N-12
SMILES: CC[C@H](C)[C@@H]1NC(=O)[C@H](Cc2ccc(C(=O)O)cc2)NC(=O)[C@H](CCC(N)=O)N(C)C(=O)[C@H](CC(=O)O)NC(=O)[C@H]([C@@H](C)CC)N(C)C(=O)[C@H](CCCCNC(C)=O)N(C)C(=O)CSC[C@@H](C(N)=O)N(C)C(=O)[C@H](Cc2ccc(-c3cnn(C)c3)cc2)NC(=O)CNC(=O)[C@H](Cc2ccc3ccccc3c2)N(C)C(=O)[C@H](Cc2ccc(C(=O)O)cc2)NC(=O)[C@H]([C@@H](C)CC)NC1=O

This note sets out measurements from US20260241049A1, “Radiopharmaceutical Compositions Targeting Glypican-3 and Uses Thereof” (RayzeBio, Inc., priority 2023, published 2026).

Starred links: 1 amine or outer side, 2 acyl side, 3 side chain; linkers in the order of their positions; H or OH if unused. Positions of bridges follow the written chain, without caps; N, C: chain ends. Non-standard residues stand in square brackets, D forms with d. Primed or numbered codes have the meaning given here. *: point of attachment. DOTA‑Lu = DOTA-lutetium(175) amide on the side-chain amine, O=C([O-])CN1CCN(CC(=O)[O-])CCN(CC(=O)*)CCN(CC(=O)[O-])CC1.[175Lu+3]; MeA4paa = 3-(1-(carboxymethyl)piperidin-4-yl)-2-(methylamino)propanoic acid, CN([C@@H](CC1CCN(CC(=O)[*:3])CC1)C(=O)[*:2])[*:1]; MeHseMe″ = (2S)-4-methoxy-2-(methylamino)butanoic acid (N-methyl-O-methyl-L-homoserine), COCC[C@@H](C(=O)[*:2])N(C)[*:1]; Thr(Me)(3) = TMe, O-methyl-L-threonine, CO[C@H](C)[C@H](N[*:1])C(=O)[*:2]; Hgn = 2,6-diamino-6-oxohexanoic acid, NC(=O)CCC[C@H](N[*:1])C(=O)[*:2]; HseMe = 2-amino-4-methoxybutanoic acid, COCC[C@H](N[*:1])C(=O)[*:2]; Phe(4-(1-Me-pyrazol-4-yl)) = Cn1cc(-c2ccc(C[C@H](N)C(=O)O)cc2)cn1; NMeAla(isoquinolin-7-yl) = CN[C@@H](Cc1ccc2ccncc2c1)C(=O)O; 3Pal(6-Ph) = N[C@@H](Cc1ccc(-c2ccccc2)nc1)C(=O)O; Phe(4-COOH) = N[C@@H](Cc1ccc(C(=O)O)cc1)C(=O)O; NMe2Nal = CN[C@@H](Cc1ccc2ccccc2c1)C(=O)O; NMeI = CC[C@H](C)[C@H](NC)C(=O)O; NMeQ = CN[C@@H](CCC(N)=O)C(=O)O; NMeL = CN[C@@H](CC(C)C)C(=O)O; MeD = methyl-L-aspartic acid; NMeK = CN[C@@H](CCCCN)C(=O)O; NMeC = CN[C@@H](CS)C(=O)O; NMeA = CN[C@@H](C)C(=O)O

The target of this experiment is T1, human Glypican3 (R&D systems, catalog number: 2119-GP) (human, UniProt P51654 25-559, limits assumed).
T1 construct: Bought recombinant protein, amine-coupled to the chip in Method B-1; also called GPC3; hGPC3
Description: SPR (Biacore T200), Method B-1: human Glypican3 amine-coupled to CM3 chip, peptide as analyte. On the procedure:
A CM3 sensor chip (Cytiva) was inserted into a Biacore T200 (Cytiva), primed three times with a running buffer: HBS-P+, pH 7.4 (Cytiva), and equilibrated at a flow rate of 30 μL/min. Ligand immobilization was performed at a flow rate of 10 μL/min. 50 μL each of 60 mM EDC solution (Cytiva) and 650 mM NHS solution (Cytiva) were mixed, and then reacted at a flow rate of 10 μL/min for 420 seconds, 150 μL of 0.2 μM human Glypican3 (R&D systems, catalog number: 2119-GP) solution which was prepared by diluting with 10 mM acetic acid solution (pH 5.0), was reacted at a flow rate of 10 μL/min for 420 seconds, and Glypican3 was immobilized on the CM3 sensor chip. After immobilization, 1.0 M ethanolamine aqueous solution (Cytiva) was allowed to react for 420 seconds at a flow rate of 10 μL/min for capping. A peptide lysate prepared to 10 mM in DMSO solution was diluted with running buffer to a final concentration of 10 μM peptide lysate. […] Using the above samples, peptide kinetics for Glypican3 was obtained by SPR measurement. Kinetics evaluation of Glypican3 was performed by SPR measurements at a flow rate of 10 μL/min, setting the association time to 120 seconds and the disassociation time to 600 seconds.
The obtained data by Method B-1, Method B-2, Method B-3 and Method B-4 were analyzed by follow. Single Cycle Kinetics was used as the kinetics evaluation model, and curve fitting was performed using Biacore T200 Evaluation Software Version 3.0 (Cytiva).
In general terms: Surface plasmon resonance follows binding to a sensor surface in real time, without labels.
For the molecule B1, the equilibrium dissociation constant (Kd) (usually the equilibrium constant for the complex coming apart) turned out to be 2.6 nM.

As to B2, binding was put at a Kd of 2.7 nM.

Turning to B3, binding was characterised by a dissociation constant (Kd) of 2.9 nM. This Kd and that of the molecule before are within 1.5-fold of each other.

Turning to B4, the Kd is 7.2 nM.

Consider B5, for which binding was characterised by a dissociation constant (Kd) of 6.8 nM.

As to B6, binding was put at a Kd of 2.5 nM. Compared with the last molecule, the Kd is about 2.7-fold lower.

Molecule {CH2CO}-[NMeQ][NMeQ]D[NMeQ][Phe(4-COOH)][Thr(Me)(3)]I[Phe(4-COOH)][NMe2Nal]G[Phe(4-(1-Me-pyrazol-4-yl))][NMeC]-NH2 (thioether N-12) [Macrocyclic peptide of Example 2-15 (SEQ ID No. 18)] had a Kd of 1.8 nM.

Consider B7, for which binding was put at a Kd of 2.2 nM.

In turn, {CH2CO}-[NMeQ][NMeQ]D[MeD][Phe(4-COOH)]II[Phe(4-COOH)][NMe2Nal]G[Phe(4-(1-Me-pyrazol-4-yl))][NMeC]-NH2 (thioether N-12) [Macrocyclic peptide of Example 2-13 (SEQ ID No. 16)] returned a Kd of 2.8 nM. The Kd values of the last two molecules are within 1.5-fold of each other.

In turn, B8 gave a Kd of 1.3 nM.

With B9, the Kd came to 0.29 nM. Against the preceding molecule, the Kd is about 4.5-fold lower.

The molecule B10 gave a Kd of 0.5 nM.

Molecule B11 had a Kd of 1.5 nM.
